The DeepSol protein solubility set

Test: soluble on expression in E. coli; label from the status in PepcDB or PDB records

Soluble on expression in E. coli, not soluble:
MKIRLLVSILCILFAGCALQQTNRALQPDQRWVTQTLPNGLTYHLYPDSEQEVSIRLYVHAGSMQETAQQAGYAHFIEHMAFNGTRHYQHNDVIRMFEQSGAQFGADFNALTGYDRTVYQLDLPNAQNIDKALLWFADIADGLAFDADEVEKEKGVILGEFRASRTENMSLEQQFYLHQIQGTSYADRDPLGSRELVQAATPDSLKAFYQQWYQPQLAELVITGNFTLEQGQQWVENYFSSWKKGSTEKPASIYHQALNNQDLVAPVTAGESPSLTLIFPQGSAAIKDYASQQEFWRDDVGEQLLHTRLVAAFNDAAQAITGIYATHYEIEGQRYTLISVGFAAEQREKVQALLLETLASMRDYGVTKNELDIILRGYREHLTFLQEDREAITPASHANQKVYSIVFDTPIQATLDYQASLSEFIASATPEMINRHIQQQLSQNPVWVVGVAATEDAQALNKALPQWRNDLAQPGNQPIDQQIDSPFTQQFTAGEVVKQLDINDDPQVTYWQLDNGIDVYYLRNIEAKDRVFVQYASSGGQFALPADLLPAAEIATAVQTRSGLDTLNGSQFDRYLRQKDIGFYSYIASTSHGFEANSKAQELPELLEILHLLSTQVKVSPDQLNSVKTEFTQNRSAYFDSPIGAFFRTVTNQSFIETSPYRIRTPEQIAQVTAQQIEQVHQRLFSEGRNNTLVIVGDIERSQITPMLRQYVASIPLSKGTLSPMTSQLIKPVAPRLELALNNENSTQYSLRLISETQPRTAKTVFIDDMLQRIATQRLLAEVREHQGLDYTPQVIPYVVDGDILNDWVLSALVDPKSEPQVAKVMHEVARELAQGVTQQELDVVKQKFLIDMKPLNKSPEQQAYFMLRYAIHHYGVETIYKVEELTKSITLDDINQRAQTLFGKDTMSQELIMTPKANPKG, MGSDKIHHHHHHLAIINDYWSTQAEAFTEISVDELTSEKNALWKSILKPFVQTDRKLEILDVGCGAGFFEIFLSCLGHHVTAVDFNGKMLAEARKNIEKLGRPELTKLMQMDAQNLAFQDSVFDIVISRNMTWVLENPQRAYGEWLRVLKPHGKLINFDANWFLHLRDDTARRNFEEGQAAVVEHGFELKESDHGGELDNIFRELPLSGCWRPQWDFMTLANMGCEEIAVKFSLPKGLYDEYYEQLYKAIPTFMLCAVKTG, SRLLKTDLLEDVFNVENESFMQETELKENEYSVNLRTRFWFRGRAYDGWINLVNPFRATMVLGTPGSGKSYAIINQYIKQTIEKGYSLFLYDFKYPDLSEIAYNHLLAHLDGYKVKPKFYVINFDNPRESHRCNPIHPDFMTDISDAYESAYTIMLNLNRTWISKQGDFFVESPIILLASIIWYLKIYKNGKYCTFPHAIEFLNRKYADIFPILTSYPELENYLSPFMDAWESSAVEQLQGQIASAKIPLSRMISPALYWVMTADDFTLDINNPEEPKVLVVGNNPDRQGIYGAALGLYNSRIVKLINKKKRLKSAVIIDELPTIYMRGLDNLIATARSNKVAVMLGFQDFSQLKRDYGDKESAVICNTVGNVFAGQVVAETAKTLSERFGKVLQKRQNMTINRNETSVSINTQMDSLIPASKISNLTQGMFVGAVADNFDERIEQKIFHAEIVVDNEQVRRETARYVKIPQIIDFTDKDGNDTMQQQIDANYYRIKSEVRQIVADEIGRIKADPELSHLIKDK, MDTFRVFSLFAGISINNSHLLEFAVKAGREVMELNEHRATLFNKNVPSRGVKRVTAITNREREAVLRIEFPNVDVTDIDFDLFQARESTDKPLDVAAAIAYRLLLGSGLPQKFGCSDEVLLNFILQCRKKYRNVPYHNFYHVVDVCQTIYTFLYRGNVYEKLTELECFVLLITALVHDLDHMGLNNSFYLKTESPLGILSSASGNKSVLEVHHCNLAVEILSDPESDVFGGLEGAERTLAFRSMIDCVLATDMARHSEFLEKYLEIMKTSYNVDDSDHRQMTMDVLMKAGDISNVTKPFDVSRQWAMAVTEEFYRQGDMEKERGVEVLPMFDRSKNMELAKGQIGFIDFVAAPFFQKIVDACLQGMQWTVDRTKSNRAQWERVLEARSTG, MSSTAEEMAAAFEQTGGPDLTTGSGKRTKSDRVEHKHASQPGGDTRKVVQTASNGEAKRKEK, MERPLARNEVTRLGPDSKFHHAGLRRGLSPATLRKLDAISRLRVFPRDAVVVPQGGALEYVGNVVRGVLRMERLLSDGRSQIVGLLVPTDMFGRVFSERSDYSVEAATEVTLCCFERHAFEALVRTCPDLEHAVLLAVLDELDAAREWITLRAGPTVAARLATYLLMLCRRWPHQTSELTQDAKRIVVNVPIARNDLAHYLGTTVESISRAVQAFSRDGIISILTPLRFEILDLPALIALSDNEEFDAHALLEGLREEQRVSP, MEQLNICIDIDGTITDAYYWIDLCNSYFKTSITEKDATQYYIHKILNVPLEEYNEFYEKYKYKLHSEQKLRKDVKSVITKLSQNNNIFFVTARERDLTILTYSYLRKKEIPYDSLFILGTHHKVPTARQLNCDLFIEDNYDNALELSKAGFKVLLIDTYYNRKPLNQNIIRFYNWDEVYGIVDRLFEKSEAI, MGSDKIHHHHHHADVIVPEQPVPVVAVPAFSWAGFYLGGQVGNFSSKTALSYLGDEKTGKWTPVKKEFVPKLSGFVGGIYAGSNFDINNGFIIGIDTDVMWSGKKNTKIITWPEVPPEVSSEKKVERVSVGTNQDTSAEVTNGALSHTLKQKWFGATRVKVGFVVDRMMPYIAGGVAYTQLQNIFEKEADKTKKAIDISNVIHDEKKTMVGYTLGGGIDFAMTDNVIVRAEYRYSDYGKKKFADEKIEMRYKTNDFRVGVAYKF, MGSDKIHHHHHHMSHKFKFLTLPHRSGEVANVFIHGYSAGHDMEDRCALRKCIPSSLHNCINIFAFWPSGHWAKFDDWSSKSILAAGRLSFLAGAGLAVADRAFHFNTSRKRATAMGKTLLSQLETYLLKHHPYVSKVNLVGHSLGGRVVIHALLDLQGKPADDSLVIGDVLLMAAASTLSGDEAKTIGERINGKLYNAWSSDDKVLLFNLGENSAGRQEIDHCQNVPMHGFGHTDYWPRLDRVLRASGFHGYRGGLPSAIQPELVIKNPDPVVADHLLYDLLELTSDGIRSQVVKHLRSSSWTKLETEHPLYLLTKEFQLLGGHCLVNLARGKGLKYVQILLMLAEHYGLVSELHDCAQVIEMEALLISKCFQSSFGEEHVLASMQDIVLQIHGLSEKEYFEQVDALAASLTVTSYISTPETPAPVYRKTGSAQTGDSKELVLASGSFLTSFSTLMPTERMKAAVINLKSAVKPGYSALIPAVAAVFYARLKLNNEGLL, MGHHHHHHSHAAMAVEPTQIQLSKRWREIESKFAQFRRLNFAQIHTVREETMMVMTEDMPLEISYVPSTYLTEITHVSQALLEVEQLLNAPDLCAKDFEDLFKQEESLKNIKDSLQQSSGRIDIIHSKKTAALQSATPVERVKLQEALSQLDFQWEKVNKMYKDRQGRFDRSVEKWRRFHYDIKIFNQWLTEAEQFLRKTQIPENWEHAKYKWYLKELQDGIGQRQTVVRTLNATGEEIIQQSSKTDASILQEKLGSLNLRWQEVCKQLSDRKKRLEEQKNILSEFQRDLNEFVLWLEEADNIASIPLEPGKEQQLKEKLEQVKLLVEELPLRQGILKQLNETGGPVLVSAPIS

Soluble on expression in E. coli, soluble:
MSLSLSHFRITRFQFARDRVIGDSQVRADDVNVAALELVSESGEVGLGFIQTLFNPLPDQQEIESVFEHEVWPSLKGNRAIALVHRVNRPRGGNQRAYSLPFHEAVQVALWDLAAKEAGLPLHVLLGSRRNRVKAYASGLDFHLDDDAFVSLFSHAASIGYSAFKIKVGHRDFDRDLRRLELLKTCVPAGSKVMIDPNEAWTSKEALTKLVAIREAGHDLLWVEDPILRHDHDGLRTLRHAVTWTQINSGEYLDLQGKRLLLEAHAADILNVHGQVTDVMRIGWLAAELGIPISIGNTFLEAGVHMAVALPEVEWLEYSFQNFDHLVEQPIEIRDGYAYAPDRPGHGLVLSEKARGEWSRPRRLARSELGAAPENPRLPAKEGHHHHHH, MRVDAIAKVTGRARYTDDYVMAGMCYAKYVRSPIAHGYAVSINDEQARSLPGVLAIFTWEDVPDIPFATAGHAWTLDENKRDTADRALLTRHVRHHGDAVAIVVARDELTAEKAAQLVSIEWQELPVITTPEAALAEDAAPIHNGGNLLKQSTMSTGNVQQTIDAADYQVQGHYQTPVIQHCHMESVTSLAWMEDDSRITIVSSTQIPHIVRRVVGQALDIPWSCVRVIKPFVGGGFGNKQDVLEEPMAAFLTSKLGGIPVKVSLSREECFLATRTRHAFTIDGQMGVNRDGTLKGYSLDVLSNTGAYASHGHSIASAGGNKVAYLYPRCAYAYSSKTCYTNLPSAGAMRGYGAPQVVFAVESMLDDAATALGIDPVEIRLRNAAREGDANPLTGKRIYSAGLPECLEKGRKIFEWEKRRAECQNQQGNLRRGVGVACFSYTSNTWPVGVEIAGARLLMNQDGTINVQSGATEIGQGADTVFSQMVAETVGVPVSDVRVISTQDTDVTPFDPGAFASRQSYVAAPALRSAALLLKEKIIAHAAVMLHQSAMNLTLIKGHIVLVERPEEPLMSLKDLAMDAFYHPERGGQLSAESSIKTTTNPPAFGCTFVDLTVDIALCKVTINRILNVHDSGHILNPLLAEGQVHGGMGMGIGWALFEEMIIDAKSGVVRNPNLLDYKMPTMPDLPQLESAFVEINEPQSAYGHKSLGEPPIIPVAAAIRNAVKMATGVAINTLPLTPKRLYEEFHLAGLI, MSLKQPAVFFDKNVSTIEENNSLLDGQTDVPVLDPHDLLVEVQAVSVNPVDTKLRQTGVASKIKILGYDAFGIVKNTGKDVTRFHAGDRVYYAGTTQRPGSNEKFQAVDERLVGRAPEKLNKSEIAAMPLTSITAYEILVDQLGLRFQNHAADGKNMLVINGAGGVGSVLLQMAAYLGINLSVTAHSSESIEWLKKYSVDKIYDYENIDETLADQKFDYIVFLYDPALYWDIAIKHIKPYGQLVSIVGTNKPLNMGPLKNIAVQFKWEYMFAKSDFNHNILSQGQALDKIAILLDAGILKTTLNKTFDLINAENLRQAYKLVESGRMQGKVVLNGPFDKALKEGHHHHHH, GAKPERGRFLHFHSVTFWVGNAKQAASFYCSKMGFEPLAYRGLETGSREVVSHVIKQGKIVFVLSSALNPWNKEMGDHLVKHGDGVKDIAFEVEDCDYIVQKARERGAKIMREPWVEQDKFGKVKFAVLQTYGDTTHTLVEKMNYIGQFLPGYEAPAFMDPLLPKLPKCSLEMIDHIVGNQPDQEMVSASEWYLKNLQFHRFWSVDDTQVHTEYSSLRSIVVANYEESIKMPINEPAPGKKKSQIQEYVDYNGGAGVQHIALKTEDIITAIRHLRERGLEFLSVPSTYYKQLREKLKTAKIKVKENIDALEELKILVDYDEKGYLLQIFTKPVQDRPTLFLEVIQRHNHQGFGAGNFNSLFKAFEEEQNLRGNLTNMETNGVVPGMAENLYFQ, MHHHHHHSSGRENLYFQGQKDGIFKVMLVGESGVGKSTLAGTFGGLQGDSAHEPENPEDTYERRIMVDKEEVTLVVYDIWEQGDAGGWLRDHCLQTGDAFLIVFSVTDRRSFSKVPETLLRLRAGRPHHDLPVILVGNKSDLARSREVSLEEGRHLAGTLSCKHIETSAALHHNTRELFEGAVRQIRLRRGRNHA, SSLIKKIEENERKDTLNTLQNMFPDMDPSLIEDVCIAAASRIGPCVDALLSLSE, MNQPIELSLEQQFSIRSFATQVQNMSHDQAKDFLVKLYEQMVVREATYQELLKHQWGLDSGSTPA, GAMAGMNIKDRTSEFQQSVLSYKKRNKNFREQQRERLQEKESENFANNTT
